{"source": "the supplement of paper PMC10567573", "parents": {"B1": {"name": "KCNAB2 (parent)", "chain": "SSIIHEIDSILGNKPYSKKDYRS"}}}
{"variants_of": "B1", "assay": "protein stability index of a GFP-peptide fusion (GPS, HEK-293T) (PSI 1-6); higher = more stable", "settings": "c terminus: native"}
{"variant": "SSIIHEIDSILGNKPYSKKDYVS", "note": "[R22V]", "protein stability index": 3.12}
{"variant": "SSIIHEIDSILGNKPYSKKDYHS", "note": "[R22H]", "protein stability index": 4.39}
{"variant": "SSIIHEIDSILGNKPYSKKDYDS", "note": "[R22D]", "protein stability index": 4.42}
{"variant": "SSIIHEIDSILGNKPYSKKDYGS", "note": "[R22G]", "protein stability index": 3.98}
{"variant": "SSIIHEIDSILGNKPYSKKDYKS", "note": "[R22K]", "protein stability index": 4.37}
{"variant": "SSIIHEIDSILGNKPYSKKDYAS", "note": "[R22A]", "protein stability index": 4.01}
{"variant": "SSIIHEIDSILGNKPYSKKDYTS", "note": "[R22T]", "protein stability index": 4.28}
{"variant": "SSIIHEIDSILGNKPYSKKDYQS", "note": "[R22Q]", "protein stability index": 4.29}
{"variant": "SSIIHEIDSILGNKPYSKKDYCS", "note": "[R22C]", "protein stability index": 3.26}
{"variant": "SSIIHEIDSILGNKPYSKKDYNS", "note": "[R22N]", "protein stability index": 4.55}
{"variant": "SSIIHEIDSILGNKPYSKKDYYS", "note": "[R22Y]", "protein stability index": 3.24}
{"variant": "SSIIHEIDSILGNKPYSKKDYWS", "note": "[R22W]", "protein stability index": 2.57}
{"variant": "SSIIHEIDSILGNKPYSKKDYIS", "note": "[R22I]", "protein stability index": 3.67}
{"variant": "SSIIHEIDSILGNKPYSKKDYSS", "note": "[R22S]", "protein stability index": 4.01}
{"variant": "SSIIHEIDSILGNKPYSKKDYPS", "note": "[R22P]", "protein stability index": 4.29}
{"variant": "SSIIHEIDSILGNKPYSKKDYLS", "note": "[R22L]", "protein stability index": 4.01}
{"variant": "SSIIHEIDSILGNKPYSKKDYMS", "note": "[R22M]", "protein stability index": 3.29}
{"variant": "SSIIHEIDSILGNKPYSKKDYFS", "note": "[R22F]", "protein stability index": 3.18}
{"variant": "SSIIHEIDSILGNKPYSKKLYRS", "note": "[D20L]", "protein stability index": 2.63}
{"variant": "SSIIHEIDSILGNKPYSKKTYRS", "note": "[D20T]", "protein stability index": 3.55}
{"variant": "SSIIHEIDSILGNKPYSKKVYRS", "note": "[D20V]", "protein stability index": 2.03}
{"variant": "SSIIHEIDSILGNKPYSKKGYRS", "note": "[D20G]", "protein stability index": 3.07}
{"variant": "SSIIHEIDSILGNKPYSKKKYRS", "note": "[D20K]", "protein stability index": 2.47}
{"variant": "SSIIHEIDSILGNKPYSKKQYRS", "note": "[D20Q]", "protein stability index": 2.04}
{"variant": "SSIIHEIDSILGNKPYSKKYYRS", "note": "[D20Y]", "protein stability index": 2.07}
{"variant": "SSIIHEIDSILGNKPYSKKEYRS", "note": "[D20E]", "protein stability index": 2.89}
{"variant": "SSIIHEIDSILGNKPYSKKPYRS", "note": "[D20P]", "protein stability index": 4.21}
{"variant": "SSIIHEIDSILGNKPYSKKMYRS", "note": "[D20M]", "protein stability index": 2.96}
{"variant": "SSIIHEIDSILGNKPYSKKSYRS", "note": "[D20S]", "protein stability index": 2.78}
{"variant": "SSIIHEIDSILGNKPYSKKHYRS", "note": "[D20H]", "protein stability index": 2.51}
{"variant": "SSIIHEIDSILGNKPYSKKNYRS", "note": "[D20N]", "protein stability index": 3.2}
{"variant": "SSIIHEIDSILGNKPYSKKIYRS", "note": "[D20I]", "protein stability index": 2.41}
{"variant": "SSIIHEIDSILGNKPYSKKAYRS", "note": "[D20A]", "protein stability index": 2.14}
{"variant": "SSIIHEIDSILGNKPYSKKWYRS", "note": "[D20W]", "protein stability index": 1.92}
{"variant": "SSIIHEIDSILGNKPYSKKCYRS", "note": "[D20C]", "protein stability index": 2.01}
{"variant": "SSIIHEIDSILGNKPYSKKFYRS", "note": "[D20F]", "protein stability index": 2.37}
{"variant": "SSIIHEIDSILGNKPYSKKDRRS", "note": "[Y21R]", "protein stability index": 1.77}
{"variant": "SSIIHEIDSILGNKPYSKKDQRS", "note": "[Y21Q]", "protein stability index": 2.2}
{"variant": "SSIIHEIDSILGNKPYSKKDTRS", "note": "[Y21T]", "protein stability index": 2.35}
{"variant": "SSIIHEIDSILGNKPYSKKDDRS", "note": "[Y21D]", "protein stability index": 4.07}
{"variant": "SSIIHEIDSILGNKPYSKKDSRS", "note": "[Y21S]", "protein stability index": 1.08}
{"variant": "SSIIHEIDSILGNKPYSKKDERS", "note": "[Y21E]", "protein stability index": 3.37}
{"variant": "SSIIHEIDSILGNKPYSKKDGRS", "note": "[Y21G]", "protein stability index": 3.37}
{"variant": "SSIIHEIDSILGNKPYSKKDKRS", "note": "[Y21K]", "protein stability index": 3.66}
{"variant": "SSIIHEIDSILGNKPYSKKDCRS", "note": "[Y21C]", "protein stability index": 3.13}
{"variant": "SSIIHEIDSILGNKPYSKKDARS", "note": "[Y21A]", "protein stability index": 3.77}
{"variant": "SSIIHEIDSILGNKPYSKKDWRS", "note": "[Y21W]", "protein stability index": 3.28}
{"variant": "SSIIHEIDSILGNKPYSKKDPRS", "note": "[Y21P]", "protein stability index": 5.12}
{"variant": "SSIIHEIDSILGNKPYSKKDLRS", "note": "[Y21L]", "protein stability index": 2.37}
{"variant": "SSIIHEIDSILGNKPYSKKDHRS", "note": "[Y21H]", "protein stability index": 3.15}
{"variant": "SSIIHEIDSILGNKPYSKKDIRS", "note": "[Y21I]", "protein stability index": 2.47}
{"variant": "SSIIHEIDSILGNKPYSKKDNRS", "note": "[Y21N]", "protein stability index": 3.64}
{"variant": "SSIIHEIDSILGNKPYSKKDFRS", "note": "[Y21F]", "protein stability index": 2.52}
{"variant": "SSIIHEIDSILGNKPYSKKDVRS", "note": "[Y21V]", "protein stability index": 3.27}
{"variant": "SSIIHEIDSILGNKPYSKKDMRS", "note": "[Y21M]", "protein stability index": 2.17}
{"variant": "SSIIHEIDSILGNKPYSKKDYRQ", "note": "[S23Q]", "protein stability index": 3.6}
{"variant": "SSIIHEIDSILGNKPYSKKDYRF", "note": "[S23F]", "protein stability index": 4.46}
{"variant": "SSIIHEIDSILGNKPYSKKDYRD", "note": "[S23D]", "protein stability index": 4.12}
{"variant": "SSIIHEIDSILGNKPYSKKDYRA", "note": "[S23A]", "protein stability index": 3.37}
{"variant": "SSIIHEIDSILGNKPYSKKDYRC", "note": "[S23C]", "protein stability index": 3.67}
{"variant": "SSIIHEIDSILGNKPYSKKDYRV", "note": "[S23V]", "protein stability index": 3.68}
{"variant": "SSIIHEIDSILGNKPYSKKDYRY", "note": "[S23Y]", "protein stability index": 3.02}
{"variant": "SSIIHEIDSILGNKPYSKKDYRP", "note": "[S23P]", "protein stability index": 3.8}
{"variant": "SSIIHEIDSILGNKPYSKKDYRK", "note": "[S23K]", "protein stability index": 4.33}
{"variant": "SSIIHEIDSILGNKPYSKKDYRW", "note": "[S23W]", "protein stability index": 2.72}
{"variant": "SSIIHEIDSILGNKPYSKKDYRR", "note": "[S23R]", "protein stability index": 2.18}
{"variant": "SSIIHEIDSILGNKPYSKKDYRL", "note": "[S23L]", "protein stability index": 3.9}
{"variant": "SSIIHEIDSILGNKPYSKKDYRH", "note": "[S23H]", "protein stability index": 4.09}
{"variant": "SSIIHEIDSILGNKPYSKKDYRI", "note": "[S23I]", "protein stability index": 3.74}
{"variant": "SSIIHEIDSILGNKPYSKKDYRE", "note": "[S23E]", "protein stability index": 4.19}
{"variant": "SSIIHEIDSILGNKPYSKKDYRN", "note": "[S23N]", "protein stability index": 4.49}
{"variant": "SSIIHEIDSILGNKPYSKKDYRG", "note": "[S23G]", "protein stability index": 2.56}
{"variant": "SSIIHEIDSILGNKPYSKKDYRT", "note": "[S23T]", "protein stability index": 4.17}
{"variant": "SSIIHEIDSILGNKPYSKKDYRM", "note": "[S23M]", "protein stability index": 3.96}
